Measurements published in paper PMC10404625 (The Journal of Biological Chemistry, 2023).
Ends that are not written are not given here.

T1: Rpc25/17 heterodimer (S. cerevisiae, UniProt P35718 1-212; P47076 1-161)
T1 sequence (looked up) 1: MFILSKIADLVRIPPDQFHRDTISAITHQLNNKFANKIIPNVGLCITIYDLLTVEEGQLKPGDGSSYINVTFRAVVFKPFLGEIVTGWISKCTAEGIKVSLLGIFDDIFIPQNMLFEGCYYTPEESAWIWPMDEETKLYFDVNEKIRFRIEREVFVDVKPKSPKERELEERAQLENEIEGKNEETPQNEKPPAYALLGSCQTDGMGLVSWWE
T1 sequence (looked up) 2: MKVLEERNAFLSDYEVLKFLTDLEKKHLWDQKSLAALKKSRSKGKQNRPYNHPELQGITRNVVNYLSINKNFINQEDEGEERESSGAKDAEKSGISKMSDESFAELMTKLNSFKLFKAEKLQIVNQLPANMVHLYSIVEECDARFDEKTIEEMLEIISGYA

T2: Rpc53/37 dimerization module (Rpc53 (274–422)/Rpc37 (71–181)) (S. cerevisiae, UniProt P25441 274-422; P36121 71-181)
T2 sequence (looked up) 1: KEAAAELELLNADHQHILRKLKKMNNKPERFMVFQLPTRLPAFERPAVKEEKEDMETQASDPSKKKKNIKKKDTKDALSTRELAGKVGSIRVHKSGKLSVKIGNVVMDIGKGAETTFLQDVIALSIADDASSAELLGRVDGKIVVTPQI
T2 sequence (looked up) 2: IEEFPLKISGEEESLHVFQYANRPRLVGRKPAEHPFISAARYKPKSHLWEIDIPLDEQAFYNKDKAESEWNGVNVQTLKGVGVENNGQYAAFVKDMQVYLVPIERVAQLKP

T3: full-length Rpc37 (S. cerevisiae, UniProt P36121 1-282)
T3 sequence (looked up): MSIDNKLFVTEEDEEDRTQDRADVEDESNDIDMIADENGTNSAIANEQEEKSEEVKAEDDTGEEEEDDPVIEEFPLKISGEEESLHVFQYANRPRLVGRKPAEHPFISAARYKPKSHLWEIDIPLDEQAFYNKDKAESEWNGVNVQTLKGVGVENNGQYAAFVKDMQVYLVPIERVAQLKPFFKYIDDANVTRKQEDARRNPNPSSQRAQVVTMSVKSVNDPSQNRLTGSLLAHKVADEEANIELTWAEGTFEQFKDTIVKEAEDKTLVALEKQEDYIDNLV

T4: Tfc4 N-ter (1–580) (S. cerevisiae, UniProt P33339 1-580)
T4 sequence (looked up): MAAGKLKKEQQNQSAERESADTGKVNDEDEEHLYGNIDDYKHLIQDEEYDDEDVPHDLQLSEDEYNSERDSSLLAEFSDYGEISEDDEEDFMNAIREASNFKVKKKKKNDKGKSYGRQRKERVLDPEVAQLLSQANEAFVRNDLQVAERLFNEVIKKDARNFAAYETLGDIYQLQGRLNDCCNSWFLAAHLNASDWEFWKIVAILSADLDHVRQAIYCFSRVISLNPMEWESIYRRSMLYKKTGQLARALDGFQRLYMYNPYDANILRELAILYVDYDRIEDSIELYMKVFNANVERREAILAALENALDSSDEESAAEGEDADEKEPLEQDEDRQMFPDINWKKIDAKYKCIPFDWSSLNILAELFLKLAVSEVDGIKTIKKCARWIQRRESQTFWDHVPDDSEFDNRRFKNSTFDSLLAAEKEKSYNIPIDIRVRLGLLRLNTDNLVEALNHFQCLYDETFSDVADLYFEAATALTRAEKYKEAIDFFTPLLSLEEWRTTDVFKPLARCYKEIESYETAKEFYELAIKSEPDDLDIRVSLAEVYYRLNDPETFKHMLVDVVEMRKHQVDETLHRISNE


Tests used:
Test in all cases: MST
Rpc25/17 heterodimer = target: T1, Rpc25/17 heterodimer
[1] = target: T2, Rpc53/37 dimerization module (Rpc53 …)
full-length Rpc37 = target: T3, full-length Rpc37
Tfc4 N-ter (1–580) = target: T4, Tfc4 N-ter (1–580)
[2] = target: three Rpc53 N-ter mutant peptides

| Binder | Kd (Rpc25/17 heterodimer) [nM] | Kd [1] [nM] | Kd (full-length Rpc37) [nM] | Kd (Tfc4 N-ter (1–580)) [nM] | Kd [2] [nM] |
| --- | --- | --- | --- | --- | --- |
| Rpc53 N-ter (1–57) fragment (domain or fragment, S. cerevisiae, UniProt P25441 1-57, looked up, also: Alexa Fluor 647 via NHS ester, position not given here) MSSNKGNGRLPSLKDSSSNGGGSAKPSLKFKPKAVARKSKEEREAAASKVKLEEESK | 230 ± 170 | 1620 ± 650 | 8.2 ± 1.7 | 5.6 ± 1.7 |  |
| Tfc4 N-ter (1–580) (domain or fragment) MAAGKLKKEQQNQSAERESADTGKVNDEDEEHLYGNIDDYKHLIQDEEYDDEDVPHDLQLSEDEYNSERDSSLLAEFSDYGEISEDDEEDFMNAIREASNFKVKKKKKNDKGKSYGRQRKERVLDPEVAQLLSQANEAFVRNDLQVAERLFNEVIKKDARNFAAYETLGDIYQLQGRLNDCCNSWFLAAHLNASDWEFWKIVAILSADLDHVRQAIYCFSRVISLNPMEWESIYRRSMLYKKTGQLARALDGFQRLYMYNPYDANILRELAILYVDYDRIEDSIELYMKVFNANVERREAILAALENALDSSDEESAAEGEDADEKEPLEQDEDRQMFPDINWKKIDAKYKCIPFDWSSLNILAELFLKLAVSEVDGIKTIKKCARWIQRRESQTFWDHVPDDSEFDNRRFKNSTFDSLLAAEKEKSYNIPIDIRVRLGLLRLNTDNLVEALNHFQCLYDETFSDVADLYFEAATALTRAEKYKEAIDFFTPLLSLEEWRTTDVFKPLARCYKEIESYETAKEFYELAIKSEPDDLDIRVSLAEVYYRLNDPETFKHMLVDVVEMRKHQVDETLHRISNE |  |  |  |  | 40 to 100 |
